# Measured values: patent publication US12385058B2, “Herbicide tolerance protein, encoding gene thereof and use thereof” (Beijing Dabeinong Biotechnology Co., Ltd., priority 2018, dated 2025)
# Experiments:
# [1] = tested on: soybean plants; assay: Herbicide tolerance of transgenic soybean T1 plants (spraying, damage degree); type: in vivo; settings: sprayed with tribenuron-methyl 144 g ai/ha, eight-fold field concentration
# Method: The degree of damage caused by the herbicide was measured for each plant according to the leaf curl degree and the growth point damage degree 3 days after spraying (3 DAT), 7 days after spraying (7 DAT), 14 days after spraying (14 DAT) and 21 days after spraying (21 DAT): the case where the leaves are flat as untreated plants and the growth points are intact is defined as having a damage degree of 0%; the case where veins are locally browned, new leaves are malformed and plant growth is slow is defined as having a damage degree of 50%; and the case where veins are purple, until the whole plant is dead and the growth points are browned and dry is defined as having a damage degree of 100%. The soybean plants into which the ALT02M1-01 nucleotide sequence was introduced were of three strains in total (S1, S2 and S3), the soybean plants into which the ALT02M2-01 nucleotide sequence was introduced were of three strains in total (S4, S5 and S6), the soybean plants into which the ALT02M3-01 nucleotide sequence was introduced were of three strains in total (S7, S8 and S9), the soybean plants into which the ALT02-01 nucleotide sequence was introduced were of three strains in total (S10, S11 and S12), the control soybean plants were of two strains in total (S13 and S14), and the wild-type soybean plants were of one strain in total (CK1); and 10-15 plants were selected from each strain and tested.
# [2] = type: biochemical; settings: 0.2 μg enzyme, 0.2 mM substrate, pH 7.0, 30° C., 20 min
# Method: (§1) Each reaction was timed beginning with the addition of reactive enzyme, and was terminated with 1 mL of dichloromethane. The organic phase after delamination was dehydrated with anhydrous sodium sulfate.
# (§2) The above dehydrated reaction solution was blown dry with nitrogen and filtered by adding 1 mL of methanol, and 20 μL of the filtrate was subjected to liquid chromatography-mass spectrometry (LC-MS). High performance liquid chromatography (HPLC) conditions were as follows: mobile phase being methanol:water (80:20, V/V), Zorbax XDB-C18 chromatographic column (3.5 μm, 2.1×50 mm, Agilent, USA), column temperature being room temperature, UV detector, with a detection wavelength of 255 nm, a sample injection volume of 20 μL, and a flow rate of 0.25 mL/min. The primary ion mass spectrometry conditions were as follows: ion detection mode being multi-reactive ion detection; ion polarity being negative ion; ionization mode being electrospray ionization; a capillary voltage of 4000 volts; a dry gas temperature of 330° C., a flow rate of 10 L/min, an atomizing gas pressure of 35 psi, a collision voltage of 135 volts; and a mass scan range of 300-500 m/z. The secondary ion mass spectrometry conditions were as follows: a collision voltage of 90 volts; a mass scanning range of 30-400 m/z, and other conditions being the same as those of the primary ion mass spectrometry. It was identified by LC-MS that the metabolite of thifensulfuron-methyl was thiophene sulfonic acid, and the metabolite of metsulfuron-methyl, chlorimuron-ethyl, bensulfuron-methyl, sulfometuron-methyl or tribenuron-methyl was its corresponding sulfonic acid. The amount of the generated thiophene sulfonic acid (metabolite) was detected using high performance liquid chromatography (HPLC).
# [3] = Degradation of sulfometuron-methyl by purified herbicide tolerant proteins (enzymatic activity, HPLC); type: biochemical; settings: 0.2 μg enzyme, 0.2 mM substrate, pH 7.0, 30° C., 20 min
# Method: as §1, §2
Molecule,herbicide tolerance compared with soybean plants into which ALT02-01 was introduced [1],herbicide tolerance imparted to transgenic soybean plants [1],"specific enzyme activity, bensulfuron-methyl [2]","specific enzyme activity, chlorimuron-ethyl [2]","specific enzyme activity, metsulfuron-methyl [2]","specific enzyme activity, thifensulfuron-methyl [2]","specific enzyme activity, tribenuron-methyl [2]","specific enzyme activity, sulfometuron-methyl [3]"
"ALT02M1-01: nucleotide sequence SEQ ID NO: 25 encoding ALT02M1, based on soybean codon usage bias (nucleic acid, the ALT02M1-01 nucleotide sequence encoding the amino acid sequence corresponding to the herbicide tolerant protein ALT02M1 and based on the soybean codon usage bias) DNA: ATGGAGACTGATAACGTGGAACTCGCCCAATCTAAGAGAAAGGTGGTGCTGGCTGAACAAGGGTCATTTTACATAGGGGGTAGGACTGTTACTGGTCCTGGCAAGTTTGATCCATCCAAACCTGTGATACCCTACAGTAACGAAGGAGCAACATTCTATATTAACCAAATGTATGTTAACTTCCAGGCCCCAGTGAGACCTAGGGGACTTCCATTGGTTTTCTGGCATGGAGGTGGCTTGACTGGTCACATCTGGGAGTCTACACCTGACGGCAGACCCGGGTTTCAAACCCTCTTCGTTCAGGATAGGCATACCGTGTACACTATTGACCAACCTGGGAGAGGAAGGGGTAACATCCCAACTTTTAACGGACCTTTCGGACAGTTGGAGGAAGAGAGTATTGTTAACACTGTGACAGCCAATTCTTCAAAGGAAGGTGCCTGGGTGAGAGATAGGCTTGGCCCTGCTCCCGGGCAATTTTTCGAGAACTCTCAGTTTCCTAGAGGCTATGAAGACAATTACTTTAAGGAGATGGGATTCAGCCCATCTATATCCAGTGATGAAATTGTTGACGCTGTTGTGAAACTCGTGACCCATATTGGTCCTTGTGTTCTGGTGACTCACTCAGCATCCGGCGTTCTTGGGATGAGAGTGGCTACACACGCAAAGAATGTTAGGGGAATTGTGGCCTATGAACCAGCTACCTCAATCTTCCCCAAGGGAAAAGTTCCAGAGATACCACCTCTCGCTGATAAGAAAAGCCAAATCTTTCCCCCATTCGAAATACAGGAGTCTTACTTTAAGAAACTTGCCAAGATTCCAATCCAATTTGTTTTCGGAGATAACATCCCCAAGAATCCAAAATCAGCATATTGGTTCCTGGACTGGTGGAGAGTGACAAGATACGCACATAGTCTCAGCCTGGAGGCCATAAACAAATTGGGGGGACAAGCTTCCCTTTTGGATCTTCCTACTGCAGGATTGAGAGGTAATACACACTTTCCCTTCACCGATAGGAACAATGTTCAGGTGGCTTCTCTCCTGTCAGACTTTCTGGGTAAACACGGTCTGGATCAAAATGAGAGCAAACTCGCCGCCGCCCTGGAATGA",significantly increased tolerance to benzenesulfonic acid,impart transgenic soybean plants with the tolerance to benzenesulfonic acid,–,–,–,–,–,–
"ALT03: ALT03 protein (362 amino acids), SEQ ID NO: 35; unmutated herbicide tolerant protein (protein, the amino acid sequence of ALT03) METDNVELAQSKRKVVLAEQGSFYIGGRTVTGPGKFDPSKPVIPYSNEGATFYINQMYVNFQAPVRPRGLPLVFWHGGGLTGHIWESTPDGRPGFQTLFVQDRHTVYTIDQPGRGRGNIPTFNGPFGQLEEESIVNTVTGNSSKEGAWVRDRLGPAPGQFFENSQFPRGYEDNYFKEMGFSPSISSDEIVDAVVKLVTHIGPCVLVTHSASGVLGMRVATHAKNVRGIVAYEPATSIFPKGKVPEIPPLADKKSQIFPPFEIQESYFKKLAKIPIQFVFGDNIPKNPKSAYWFLDWWRVTRYAHSLSLEAINKLGGQASLLDLPTAGLRGNTHFPFTDRNNVQVASLLSDFLGKHGLDQNES",–,–,1.6 µmol/min/mg,2.6 µmol/min/mg,1.9 µmol/min/mg,26.0 µmol/min/mg,1.7 µmol/min/mg,1.8 µmol/min/mg
"ALT04: ALT04 protein (350 amino acids), SEQ ID NO: 51; unmutated herbicide tolerant protein (protein, the amino acid sequence of ALT04) MSKRKVVLAEQGSFYIGGRTVTGPGKFDPSKPVIPYSNEGATFYINQMYVNFQAPVRPRGLPLVFWHGGGLTGHIWESTPDGRPGFQTLFVQDRHTVYTIDQPGRGRGNIPTFNGPFGQLEEESIVNTVTGNSSKEGAWVRDRLGPAPGQFFENSQFPRGYEDNYFKEMGFSPSISSDEIVDAVVKLVTHIGPCVLVTHSASGVLGMRVATHAKNVRGIVAYEPATSIFPKGKVPEIPPLADKKSQIFPPFEIQESYFKKLAKIPIQFVFGDNIPKNPKSAYWFLDWWRVTRYAHSLSLEAINKLGGQASLLDLPTAGLRGNTHFPFTDRNNVQVASLLSDFLGKHGLDQ",–,–,1.5 µmol/min/mg,2.4 µmol/min/mg,1.8 µmol/min/mg,24.7 µmol/min/mg,1.6 µmol/min/mg,1.7 µmol/min/mg
"ALT04M3: herbicide tolerant protein, SEQ ID NO: 63; ALT04 mutated at positions 35, 36, 131, 133 and 137 (protein, the amino acid sequence of the ALT04M3) MSKRKVVLAEQGSFYIGGRTVTGPGKFDPSKPVIRASNEGATFYINQMYVNFQAPVRPRGLPLVFWHGGGLTGHIWESTPDGRPGFQTLFVQDRHTVYTIDQPGRGRGNIPTFNGPFGQLEEESIVNTVTANVSKERAWVRDRLGPAPGQFFENSQFPRGYEDNYFKEMGFSPSISSDEIVDAVVKLVTHIGPCVLVTHSASGVLGMRVATHAKNVRGIVAYEPATSIFPKGKVPEIPPLADKKSQIFPPFEIQESYFKKLAKIPIQFVFGDNIPKNPKSAYWFLDWWRVTRYAHSLSLEAINKLGGQASLLDLPTAGLRGNTHFPFTDRNNVQVASLLSDFLGKHGLDQ",–,–,0.6 µmol/min/mg,34.6 µmol/min/mg,3.8 µmol/min/mg,16.0 µmol/min/mg,3.0 µmol/min/mg,1.0 µmol/min/mg
"ALT01: ALT01 protein (398 amino acids), SEQ ID NO: 1; unmutated herbicide tolerant protein (protein, listed as Methylophilus sp.) MGTALLTGTSAASPVLAAGTGAIGIATLPLSTATAPAGTAAVGLAGSLALVVLAGGGSPTIGGATVTGPGLPAPSLPVIPTSAGGATPTIAGMTVAPGAPVAPAGLPLVPTHGGGLTGHITGSTPAGAPGPGTLPVGAAHTVTTIAGPGAGAGAIPTPAGPPGGLGGGSIVATVTGASSLGGATVAAALGPAPGGPPGASGPPAGTGAATPLGMGPSPSISSAGIVAAVVLLVTHIGPCVLVTHSASGVLGMAVATHALAVAGIVATGPATSIPPLGLVPGIPPLAALLSGIPPPPGIGGSTPLLLALIPIGPVPGAAIPLAPLSATTPLATTAVTATAHSLSLGAIALLGGGASLLALPTAGLAGATHPPPTAAAAVGVASLLSAPLGLHGLAGAGS",–,–,1.7 µmol/min/mg,2.7 µmol/min/mg,2.0 µmol/min/mg,27.4 µmol/min/mg,1.8 µmol/min/mg,1.9 µmol/min/mg
